Data as given in patent US20250011410A1 (INVETX, published 2025).

Biological target: T1, canine NGF tagged at the C-terminus with the Flag tag (canine, UniProt A0A8I3PYI3 122-241)
T1 construct: mature; Expressed with baculovirus technology; also called feline NGF (processed form identical)
Assay: SPR off-rate screen, Fab-SASA on BSA chip

T1 sequence (A0A8I3PYI3 entry or part of it): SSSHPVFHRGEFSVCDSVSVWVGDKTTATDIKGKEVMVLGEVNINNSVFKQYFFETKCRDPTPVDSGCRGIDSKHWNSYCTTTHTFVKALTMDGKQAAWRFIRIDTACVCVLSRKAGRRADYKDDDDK

Row | Binder | Kd | Ratio WT-kd/clone-kd | koff | kon
1 | felinized clone 101 Fab-SASA variant S34A (VL) (Fab, V domains shown, not shown: small tags and cut ends) VH: DVQLVESGGDLVKPGGSLRLTCVASGLSLTSSSMSWVRQAPGKGLQWVSTIYSNGGTYYTDSVKGRFTISKDNAENTLYLQMNNLKTEDTATYYCASIYYYDADYLHWYFDFWGQGALVTVSS VL: EIQMTQSPTSLSASVGDRVTITCRASEGISNNLAWYQQTPGKAPKLLIYATSNLHSGVPSRFSGSGSGTDFTLTISSLQPEDFATYYCQQGYKWPLTFGGGTKLEITR | 1.74 nM | 1.2 | 0.000783 s⁻¹ | 450000 M⁻¹ s⁻¹
2 | felinized clone 101 Fab-SASA variant S35V (VH) (Fab, V domains shown, not shown: small tags and cut ends) VH: DVQLVESGGDLVKPGGSLRLTCVASGLSLTSSSMVWVRQAPGKGLQWVSTIYSNGGTYYTDSVKGRFTISKDNAENTLYLQMNNLKTEDTATYYCASIYYYDADYLHWYFDFWGQGALVTVSS VL: EIQMTQSPTSLSASVGDRVTITCRASEGISNNLSWYQQTPGKAPKLLIYATSNLHSGVPSRFSGSGSGTDFTLTISSLQPEDFATYYCQQGYKWPLTFGGGTKLEITR | 1.17 nM | 2.62 | 0.00036 s⁻¹ | 309000 M⁻¹ s⁻¹
3 | felinized clone 101 Fab-SASA variant S97M (VH) (Fab, V domains shown, not shown: small tags and cut ends) VH: DVQLVESGGDLVKPGGSLRLTCVASGLSLTSSSMSWVRQAPGKGLQWVSTIYSNGGTYYTDSVKGRFTISKDNAENTLYLQMNNLKTEDTATYYCAMIYYYDADYLHWYFDFWGQGALVTVSS VL: EIQMTQSPTSLSASVGDRVTITCRASEGISNNLSWYQQTPGKAPKLLIYATSNLHSGVPSRFSGSGSGTDFTLTISSLQPEDFATYYCQQGYKWPLTFGGGTKLEITR | 1.75 nM | 2.02 | 0.000466 s⁻¹ | 266000 M⁻¹ s⁻¹
4 | felinized clone 101 Fab-SASA variant S62D (VH) (Fab, V domains shown, not shown: small tags and cut ends) VH: DVQLVESGGDLVKPGGSLRLTCVASGLSLTSSSMSWVRQAPGKGLQWVSTIYSNGGTYYTDDVKGRFTISKDNAENTLYLQMNNLKTEDTATYYCASIYYYDADYLHWYFDFWGQGALVTVSS VL: EIQMTQSPTSLSASVGDRVTITCRASEGISNNLSWYQQTPGKAPKLLIYATSNLHSGVPSRFSGSGSGTDFTLTISSLQPEDFATYYCQQGYKWPLTFGGGTKLEITR | 1.86 nM | 1.68 | 0.00056 s⁻¹ | 301000 M⁻¹ s⁻¹
5 | felinized clone 101 Fab-SASA variant S53P (VH) (Fab, V domains shown, not shown: small tags and cut ends) VH: DVQLVESGGDLVKPGGSLRLTCVASGLSLTSSSMSWVRQAPGKGLQWVSTIYPNGGTYYTDSVKGRFTISKDNAENTLYLQMNNLKTEDTATYYCASIYYYDADYLHWYFDFWGQGALVTVSS VL: EIQMTQSPTSLSASVGDRVTITCRASEGISNNLSWYQQTPGKAPKLLIYATSNLHSGVPSRFSGSGSGTDFTLTISSLQPEDFATYYCQQGYKWPLTFGGGTKLEITR | 2.15 nM | 1.36 | 0.000695 s⁻¹ | 323000 M⁻¹ s⁻¹
6 | felinized clone 101 Fab-SASA variant T30N (VH) (Fab, V domains shown, not shown: small tags and cut ends) VH: DVQLVESGGDLVKPGGSLRLTCVASGLSLNSSSMSWVRQAPGKGLQWVSTIYSNGGTYYTDSVKGRFTISKDNAENTLYLQMNNLKTEDTATYYCASIYYYDADYLHWYFDFWGQGALVTVSS VL: EIQMTQSPTSLSASVGDRVTITCRASEGISNNLSWYQQTPGKAPKLLIYATSNLHSGVPSRFSGSGSGTDFTLTISSLQPEDFATYYCQQGYKWPLTFGGGTKLEITR | 2.12 nM | 1.34 | 0.000704 s⁻¹ | 333000 M⁻¹ s⁻¹
7 | felinized clone 101 Fab-SASA variant S97H (VH) (Fab, V domains shown, not shown: small tags and cut ends) VH: DVQLVESGGDLVKPGGSLRLTCVASGLSLTSSSMSWVRQAPGKGLQWVSTIYSNGGTYYTDSVKGRFTISKDNAENTLYLQMNNLKTEDTATYYCAHIYYYDADYLHWYFDFWGQGALVTVSS VL: EIQMTQSPTSLSASVGDRVTITCRASEGISNNLSWYQQTPGKAPKLLIYATSNLHSGVPSRFSGSGSGTDFTLTISSLQPEDFATYYCQQGYKWPLTFGGGTKLEITR | 1.79 nM | 1.77 | 0.000533 s⁻¹ | 297000 M⁻¹ s⁻¹
8 | felinized clone 101 Fab-SASA variant S34G (VL) (Fab, V domains shown, not shown: small tags and cut ends) VH: DVQLVESGGDLVKPGGSLRLTCVASGLSLTSSSMSWVRQAPGKGLQWVSTIYSNGGTYYTDSVKGRFTISKDNAENTLYLQMNNLKTEDTATYYCASIYYYDADYLHWYFDFWGQGALVTVSS VL: EIQMTQSPTSLSASVGDRVTITCRASEGISNNLGWYQQTPGKAPKLLIYATSNLHSGVPSRFSGSGSGTDFTLTISSLQPEDFATYYCQQGYKWPLTFGGGTKLEITR | 1.13 nM | 1.83 | 0.000514 s⁻¹ | 456000 M⁻¹ s⁻¹
9 | felinized clone 101 Fab-SASA variant T60E (VH) (Fab, V domains shown, not shown: small tags and cut ends) VH: DVQLVESGGDLVKPGGSLRLTCVASGLSLTSSSMSWVRQAPGKGLQWVSTIYSNGGTYYEDSVKGRFTISKDNAENTLYLQMNNLKTEDTATYYCASIYYYDADYLHWYFDFWGQGALVTVSS VL: EIQMTQSPTSLSASVGDRVTITCRASEGISNNLSWYQQTPGKAPKLLIYATSNLHSGVPSRFSGSGSGTDFTLTISSLQPEDFATYYCQQGYKWPLTFGGGTKLEITR | 2.38 nM | 1.38 | 0.000683 s⁻¹ | 287000 M⁻¹ s⁻¹
10 | felinized clone 101 Fab-SASA variant S56T (VL) (Fab, V domains shown, not shown: small tags and cut ends) VH: DVQLVESGGDLVKPGGSLRLTCVASGLSLTSSSMSWVRQAPGKGLQWVSTIYSNGGTYYTDSVKGRFTISKDNAENTLYLQMNNLKTEDTATYYCASIYYYDADYLHWYFDFWGQGALVTVSS VL: EIQMTQSPTSLSASVGDRVTITCRASEGISNNLSWYQQTPGKAPKLLIYATSNLHTGVPSRFSGSGSGTDFTLTISSLQPEDFATYYCQQGYKWPLTFGGGTKLEITR | 1.99 nM | 1.32 | 0.000714 s⁻¹ | 358000 M⁻¹ s⁻¹
11 | felinized clone 101 Fab-SASA variant S56D (VL) (Fab, V domains shown, not shown: small tags and cut ends) VH: DVQLVESGGDLVKPGGSLRLTCVASGLSLTSSSMSWVRQAPGKGLQWVSTIYSNGGTYYTDSVKGRFTISKDNAENTLYLQMNNLKTEDTATYYCASIYYYDADYLHWYFDFWGQGALVTVSS VL: EIQMTQSPTSLSASVGDRVTITCRASEGISNNLSWYQQTPGKAPKLLIYATSNLHDGVPSRFSGSGSGTDFTLTISSLQPEDFATYYCQQGYKWPLTFGGGTKLEITR | 2.03 nM | 1.25 | 0.000755 s⁻¹ | 372000 M⁻¹ s⁻¹
12 | felinized clone 101 Fab-SASA variant S56N (VL) (Fab, V domains shown, not shown: small tags and cut ends) VH: DVQLVESGGDLVKPGGSLRLTCVASGLSLTSSSMSWVRQAPGKGLQWVSTIYSNGGTYYTDSVKGRFTISKDNAENTLYLQMNNLKTEDTATYYCASIYYYDADYLHWYFDFWGQGALVTVSS VL: EIQMTQSPTSLSASVGDRVTITCRASEGISNNLSWYQQTPGKAPKLLIYATSNLHNGVPSRFSGSGSGTDFTLTISSLQPEDFATYYCQQGYKWPLTFGGGTKLEITR | 2.64 nM | 1.04 | 0.000903 s⁻¹ | 341000 M⁻¹ s⁻¹
13 | felinized clone 101 Fab-SASA variant S56E (VL) (Fab, V domains shown, not shown: small tags and cut ends) VH: DVQLVESGGDLVKPGGSLRLTCVASGLSLTSSSMSWVRQAPGKGLQWVSTIYSNGGTYYTDSVKGRFTISKDNAENTLYLQMNNLKTEDTATYYCASIYYYDADYLHWYFDFWGQGALVTVSS VL: EIQMTQSPTSLSASVGDRVTITCRASEGISNNLSWYQQTPGKAPKLLIYATSNLHEGVPSRFSGSGSGTDFTLTISSLQPEDFATYYCQQGYKWPLTFGGGTKLEITR | 2.19 nM | 1.17 | 0.000809 s⁻¹ | 370000 M⁻¹ s⁻¹
14 | felinized clone 101 Fab-SASA variant S97Q (VH) (Fab, V domains shown, not shown: small tags and cut ends, Fab-SASA in conditioned medium) VH: DVQLVESGGDLVKPGGSLRLTCVASGLSLTSSSMSWVRQAPGKGLQWVSTIYSNGGTYYTDSVKGRFTISKDNAENTLYLQMNNLKTEDTATYYCAQIYYYDADYLHWYFDFWGQGALVTVSS VL: EIQMTQSPTSLSASVGDRVTITCRASEGISNNLSWYQQTPGKAPKLLIYATSNLHSGVPSRFSGSGSGTDFTLTISSLQPEDFATYYCQQGYKWPLTFGGGTKLEITR | 1.36 nM | 2.34 | 0.000403 s⁻¹ | 297000 M⁻¹ s⁻¹
15 | felinized clone 101 Fab-SASA variant T60D (VH) (Fab, V domains shown, not shown: small tags and cut ends) VH: DVQLVESGGDLVKPGGSLRLTCVASGLSLTSSSMSWVRQAPGKGLQWVSTIYSNGGTYYDDSVKGRFTISKDNAENTLYLQMNNLKTEDTATYYCASIYYYDADYLHWYFDFWGQGALVTVSS VL: EIQMTQSPTSLSASVGDRVTITCRASEGISNNLSWYQQTPGKAPKLLIYATSNLHSGVPSRFSGSGSGTDFTLTISSLQPEDFATYYCQQGYKWPLTFGGGTKLEITR | 1.93 nM | 1.66 | 0.000567 s⁻¹ | 294000 M⁻¹ s⁻¹
16 | felinized clone 101 Fab-SASA variant T60H (VH) (Fab, V domains shown, not shown: small tags and cut ends) VH: DVQLVESGGDLVKPGGSLRLTCVASGLSLTSSSMSWVRQAPGKGLQWVSTIYSNGGTYYHDSVKGRFTISKDNAENTLYLQMNNLKTEDTATYYCASIYYYDADYLHWYFDFWGQGALVTVSS VL: EIQMTQSPTSLSASVGDRVTITCRASEGISNNLSWYQQTPGKAPKLLIYATSNLHSGVPSRFSGSGSGTDFTLTISSLQPEDFATYYCQQGYKWPLTFGGGTKLEITR | 1.8 nM | 1.68 | 0.000561 s⁻¹ | 312000 M⁻¹ s⁻¹
17 | felinized clone 101 Fab-SASA variant S97T (VH) (Fab, V domains shown, not shown: small tags and cut ends, Fab-SASA in conditioned medium) VH: DVQLVESGGDLVKPGGSLRLTCVASGLSLTSSSMSWVRQAPGKGLQWVSTIYSNGGTYYTDSVKGRFTISKDNAENTLYLQMNNLKTEDTATYYCATIYYYDADYLHWYFDFWGQGALVTVSS VL: EIQMTQSPTSLSASVGDRVTITCRASEGISNNLSWYQQTPGKAPKLLIYATSNLHSGVPSRFSGSGSGTDFTLTISSLQPEDFATYYCQQGYKWPLTFGGGTKLEITR | 1.88 nM | 1.32 | 0.000716 s⁻¹ | 380000 M⁻¹ s⁻¹
18 | felinized clone 101 Fab-SASA variant T30R (VH) (Fab, V domains shown, not shown: small tags and cut ends) VH: DVQLVESGGDLVKPGGSLRLTCVASGLSLRSSSMSWVRQAPGKGLQWVSTIYSNGGTYYTDSVKGRFTISKDNAENTLYLQMNNLKTEDTATYYCASIYYYDADYLHWYFDFWGQGALVTVSS VL: EIQMTQSPTSLSASVGDRVTITCRASEGISNNLSWYQQTPGKAPKLLIYATSNLHSGVPSRFSGSGSGTDFTLTISSLQPEDFATYYCQQGYKWPLTFGGGTKLEITR | 2.05 nM | 1.29 | 0.00073 s⁻¹ | 357000 M⁻¹ s⁻¹
